Source: the Human Domainome abundance scans (Beltran et al. 2025)
± gives the uncertainty stated by the source.

B1: Tumor protein 63, residues 545 to 610; numbered along this chain, Q9H3D4 (parent)
chain: TDCSIVSFLARLGCSSCLDYFTTQGLTTIYQIEHYSMDDLASLKIPEQFRHAIWKGILDHRQLHEF
B2: TGF-beta-activated kinase 1 and MAP3K7-binding protein 3, residues 12 to 50; numbered along this chain, Q8N5C8 (parent)
chain: VLHDLRQRFPEIPEGVVSQCMLQNNNNLEACCRALSQES

Variants of: B1
Test: abundance fitness (aPCA) (normalised: wild type 0, dead -1); higher = more abundant; growth selection in yeast, the domain comes from the species named
Details: Homo sapiens

Variant	abundance fitness
L12G	-0.648 ± 0.032
L26H	-0.225 ± 0.04
L58F	-0.034 ± 0.029
S4C	-0.16 ± 0.03
S4K	-0.075 ± 0.029
W54I	-0.028 ± 0.14
A41K	0.008 ± 0.038
A41M	-0.088 ± 0.06
A41R	-0.039 ± 0.025
V6R	-0.012 ± 0.028
Q62G	-0.023 ± 0.017
Q62W	-0.144 ± 0.034
Y35A	-0.131 ± 0.026
E47C	-0.076 ± 0.052
E47G	0.041 ± 0.022
E47M	-0.04 ± 0.05
R50G	-0.274 ± 0.023
F66R	-0.013 ± 0.068
A10T	-0.134 ± 0.065
G56C	-0.472 ± 0.047
G56F	-0.649 ± 0.061
L9D	-0.474 ± 0.15

Variant	abundance fitness
L9Q	-1.03 ± 0.11
L63K	-0.004 ± 0.052
L63F	-0.105 ± 0.071
E65I	-0.099 ± 0.096
E65C	-0.023 ± 0.065
I57K	-0.51 ± 0.043
D39T	-0.124 ± 0.036
F21S	-0.773 ± 0.05
T27S	-0.022 ± 0.022
T27A	-0.105 ± 0.023
L18S	-0.018 ± 0.022
L18H	-0.126 ± 0.023
D19R	-0.019 ± 0.023
T1C	-0.063 ± 0.033
H64I	-0.061 ± 0.038
H64F	-0.064 ± 0.031
L43P	-0.564 ± 0.042
H51S	0.013 ± 0.02
I45W	-0.967 ± 0.062
I53L	-0.117 ± 0.025
I53R	-0.945 ± 0.079
I53K	-0.25 ± 0.13

Variant	abundance fitness
I53T	-0.787 ± 0.064
I53Q	-0.99 ± 0.14
D2Q	-0.127 ± 0.047
D2V	-0.22 ± 0.024
D2L	-0.338 ± 0.026
K44Y	-0.083 ± 0.037
K44T	-0.061 ± 0.025
K44E	0.002 ± 0.046
K44A	-0.037 ± 0.025
A52D	-0.064 ± 0.03
C3V	-0.15 ± 0.021
Q48G	-0.025 ± 0.02
Q48R	-0.013 ± 0.021
S7N	-0.006 ± 0.032
S42W	-0.097 ± 0.036
D38N	-0.071 ± 0.078
D59R	-0.087 ± 0.024
E33L	-0.06 ± 0.027
F49D	-0.021 ± 0.035
F49K	-0.027 ± 0.047
F49P	-0.061 ± 0.033
F49C	-0.047 ± 0.031

Variant	abundance fitness
H34I	-0.372 ± 0.039
H34P	-0.188 ± 0.026
C14E	-0.42 ± 0.029
C14T	-0.143 ± 0.037
R61M	-0.077 ± 0.028
F8I	-0.272 ± 0.019
S15Y	-0.096 ± 0.043
M37Y	-0.049 ± 0.05
C17D	-1.05 ± 0.14
C17L	-0.085 ± 0.022
Q31Y	-0.721 ± 0.039
Q31S	-0.093 ± 0.021
Q24V	-0.04 ± 0.027
Q24M	-0.067 ± 0.034
G13W	-0.829 ± 0.063
S36T	-0.023 ± 0.044
S36W	-0.436 ± 0.05
P46T	-0.46 ± 0.033
S16K	-0.12 ± 0.03
I29T	-0.046 ± 0.024
I29K	-0.366 ± 0.036

Variants of: B2
Test: as above
Details: Homo sapiens

Variant	abundance fitness
N27R	-0.607 ± 0.054
N27T	-1.01 ± 0.22
N27G	-0.78 ± 0.073
N27A	-0.643 ± 0.079
N27V	-0.764 ± 0.08
N27H	-0.605 ± 0.26
N27K	-0.651 ± 0.11
N27P	-0.856 ± 0.18
N27C	-0.831 ± 0.26
N27W	-0.835 ± 0.23
N27L	-1.12 ± 0.14
N27Q	-0.398 ± 0.12
N27S	-0.478 ± 0.09
L28A	-0.484 ± 0.05
L28H	-0.285 ± 0.097
L28T	-0.684 ± 0.2
L28S	-0.629 ± 0.09
L28P	-0.313 ± 0.085
L28V	-0.221 ± 0.043
L28W	0.007 ± 0.042
L28D	-0.829 ± 0.31
L28R	-0.437 ± 0.047
L28C	-0.587 ± 0.37
L28M	-0.262 ± 0.076
L28E	-0.471 ± 0.1
L28G	-0.605 ± 0.048
L28Q	-0.527 ± 0.1

Variant	abundance fitness
N25M	-0.548 ± 0.086
N25Q	-0.306 ± 0.075
N25T	-0.788 ± 0.091
N25P	-0.615 ± 0.15
N25W	-0.819 ± 0.098
N25C	-0.5 ± 0.099
N25D	-0.015 ± 0.082
N25G	-0.108 ± 0.038
N25R	-0.39 ± 0.045
N25A	-0.425 ± 0.054
N25S	-0.365 ± 0.051
N25V	-0.904 ± 0.095
A30K	-0.214 ± 0.072
A30T	-0.568 ± 0.083
A30I	-0.838 ± 0.18
A30G	-0.599 ± 0.047
A30C	-0.684 ± 0.25
A30R	-0.348 ± 0.043
A30H	-0.248 ± 0.17
A30P	-0.716 ± 0.14
A30Q	-0.178 ± 0.07
A30E	-0.081 ± 0.045
A30W	-0.794 ± 0.1
A30V	-0.55 ± 0.065
A30N	-0.174 ± 0.25
A30M	-0.178 ± 0.054
A30S	-0.402 ± 0.075

Variant	abundance fitness
N24W	-0.638 ± 0.055
N24R	-1.08 ± 0.086
N24C	-0.351 ± 0.054
N24Q	-0.623 ± 0.12
N24L	-0.73 ± 0.07
N24A	-0.747 ± 0.061
N24G	-0.878 ± 0.059
N24P	-0.989 ± 0.11
N24E	-0.329 ± 0.062
N24V	-0.894 ± 0.073
N24H	0.178 ± 0.077
N24S	-0.848 ± 0.09
N24M	-0.679 ± 0.096
N24T	-0.871 ± 0.093
N24K	-0.843 ± 0.23
C32Q	-0.368 ± 0.095
C32V	0.176 ± 0.041
C32G	-0.575 ± 0.053
C32Y	-0.246 ± 0.064
C32L	-0.291 ± 0.071
C32H	-0.171 ± 0.15
C32M	-0.076 ± 0.048
C32R	-0.589 ± 0.06
C32D	-0.484 ± 0.069
C32N	0.023 ± 0.15
C32P	-0.664 ± 0.093
